Measured values as given in patent US20240425569A1 (VISTERRA, published 2024).
Residue numbers refer to the chain shown, from its start. Numbers in names are those of the source. Where “and” joins values, the source holds several entries; their conditions need not be identical. Identical values can stand only once. Like-named read-outs stand apart in the source and are kept apart here.

Tests used:
[1] = target: T1, EDIII-DV2 (E protein domain III of dengue virus serotype DV-2) (dengue virus serotype DV-2, UniProt P14337 573-677)
T1 construct: also called DENV-2; EDIII of DV-2

[2] = target: T2, EDIII-DV1 (E protein domain III of dengue virus serotype DV-1) (dengue virus serotype DV-1, UniProt P17763 573-680)
T2 construct: also called DENV-1; EDIII of DV-1
T2 chain: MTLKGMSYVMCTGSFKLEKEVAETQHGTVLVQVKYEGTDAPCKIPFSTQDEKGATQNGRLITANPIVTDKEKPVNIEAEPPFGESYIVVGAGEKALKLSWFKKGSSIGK

[3] = target: T3, EDIII-DV4 (E protein domain III of dengue virus serotype DV-4) (dengue virus serotype DV-4, UniProt P09866 572-679)
T3 construct: also called DENV-4

[4] = target: T4, EDIII-DV3 (E protein domain III of dengue virus serotype DV-3) (dengue virus serotype DV-3, UniProt P27915 571-678)
T4 construct: also called DENV-3; EDIII of DV-3

[5] = target: T3, EDIII-DV4 (E protein domain III of …); assay: affinity for EDIII, table of FIG. 4; method not stated
[6] = target: T3, EDIII-DV4 (E protein domain III of …); remark: listed apart in the source
[7] = target: T3, EDIII-DV4 (E protein domain III of …); assay: affinity for EDIII-DV-4, tables of FIG. 5; method not stated
[8] = target: T1, EDIII-DV2 (E protein domain III of …); assay: competition ELISA
[9] = target: T2, EDIII-DV1 (E protein domain III of …); assay: competition ELISA
[10] = target: T4, EDIII-DV3 (E protein domain III of …); assay: competition ELISA
[11] = target: T4, EDIII-DV3 (E protein domain III of …); remark: listed apart in the source
[12] = target: T5, Singapore/2008 (serotype II EDIII); assay: Kd table, method not stated; Ag DENV-2 Sing
T5 construct: also called ED3-DV2/Sing08; DENV-2 Sing

[13] = target: T6, New Caledonia/2009 (serotype IV EDIII); assay: Kd table, method not stated; Ag DENV-4 NC
T6 construct: also called ED3-DV4/NewCal09; DENV-4 NC
T6 E protein domain III (EDIII): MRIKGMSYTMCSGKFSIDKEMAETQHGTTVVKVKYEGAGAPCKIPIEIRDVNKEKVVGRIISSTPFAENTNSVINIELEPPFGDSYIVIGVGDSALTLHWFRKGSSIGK

[14] = target: T7, New Guinea/1944 (NGC)* (serotype II EDIII) (Dengue virus 2); assay: Kd table, method not stated; Ag DENV-2 NGC
T7 construct: isolated EDIII protein; also called EDIII of DENV-2 NGC

[15] = target: ED3-DV4/H241/Phil56 (EDIII of DENV-4 strain H241) (dengue virus serotype DENV-4, strain …, UniProt Q58HT7 572-679); assay: Kd table, method not stated; Ag DENV-4 Phil
[16] = target: T3, EDIII-DV4 (E protein domain III of …); remark: listed apart in the source
[17] = target: T8, Singapore/2009 (serotype III EDIII)
T8 construct: also called ED3-DV3/Sing09; DENV-3 Sing
T8 E protein domain III (EDIII): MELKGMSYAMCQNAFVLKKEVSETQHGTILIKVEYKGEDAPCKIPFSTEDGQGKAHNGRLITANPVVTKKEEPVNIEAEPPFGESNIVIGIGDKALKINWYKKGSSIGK

[18] = target: T9, Philippines/1956 (H87)* (serotype III EDIII) (Dengue virus 3)
T9 construct: isolated EDIII protein

[19] = target: T10, Mexico/1977 (BC287/97)* (serotype IV EDIII) (Dengue virus 4); assay: Kd table, method not stated; Ag DENV-4 BC2
T10 construct: isolated EDIII protein; also called EDIII of DENV-4 Mexico/1997 (BC287/97); DENV-4 BC2

[20] = target: T11, Peru/1995 (serotype II EDIII); assay: Kd table, method not stated; Ag DENV-2 Peru
T11 construct: also called ED3-DV2/Peru95; DENV-2 Peru

[21] = target: T12, Singapore/2010 (serotype IV EDIII); assay: Kd table, method not stated; Ag DENV-4 Sing
T12 construct: also called ED3-DV4/Sing10; DENV-4 Sing
T12 E protein domain III (EDIII): T6 E protein domain III (EDIII) with I44V, I74T

[22] = target: T3, EDIII-DV4 (E protein domain III of …); assay: competition ELISA; column 'EDIII-DV4 [1/7]'
[23] = target: T3, EDIII-DV4 (E protein domain III of …); remark: listed apart in the source
[24] = target: T2, EDIII-DV1 (E protein domain III of …); assay: SPR (FIG. 9), by context
[25] = target: T3, EDIII-DV4 (E protein domain III of …); assay: competition ELISA; column 'EDIII-DV4'
[26] = target: T13, Nicaragua/2010 (serotype III EDIII)
T13 construct: also called ED3-DV3/Nicaragua10; DENV-3 Nic
T13 E protein domain III (EDIII): T8 E protein domain III (EDIII) with Q12T, A14T, A40V, K94N

[27] = target: T3, EDIII-DV4 (E protein domain III of …); remark: listed apart in the source
[28] = target: dengue virus serotype DV-4 (live virus, representative strain not named; E protein) (dengue virus serotype DV-4); assay: cell-based or functional assay
[29] = target: T4, EDIII-DV3 (E protein domain III of …); remark: listed apart in the source
[30] = target: T2, EDIII-DV1 (E protein domain III of …)

B1: antibody B48+A98V (antibody, V domains shown)
VH: QVQLVQSGAEVKKPGASVKVSCKAGFNIKDTYMSWVRQAPEQGLEWMGRIDPENGDTKYDPKLQGRVTMTADTSTNTAYMELRSLRSDDTAVYYCVRGWEGFAYWGQGTLVTVSS
VL: DIVMTQSPASLAVSLGERATISCRASENVDKYGNSFMHWYQQKPGQPPKLLIYRASELQWGVPDRFSGSGSGTDFTLTISSLQAEDVAVYYCQRSNEVPWTFGQGTKLEIK
- Kd [1]: < 0.1 nM
- Kd [2]: < 0.1 nM
- Kd [3]: 9.26 nM
- Kd [4]: 5.06 nM
- fold improvement in binding relative to antibody B48 [5]: ~5 fold

B2: antibody D48 (antibody, V domains shown)
VH: VKLLEQSGAEVKKPGASVKVSCKASGFNIKDVYMSWVRQAPEQGLEWMGRIDPENGDTKYDPKLQGRVTMTADTSTNTAYMELRSLRSDDTAVYYCARGWEGFAYWGQGTLVTVSS
VL: B1 VL
- Kd [6]: 7.49 nM
- fold improvement in affinity relative to an antibody with a fully humanized N-terminus [7]: ~2 fold

B3: antibody C98 (antibody, V domains shown)
VH: B2 VH with V1Q, K2V, L3Q, E5V, A97V
VL: B1 VL
- Kd [8]: < 0.1 nM
- Kd [9]: < 0.1 nM
- Kd [10]: 1.29 nM
- Kd [11]: 1.21 nM

B4: antibody C88 (antibody, V domains shown)
VH: B2 VH with V1Q, K2V, L3Q, E5V
VL: B1 VL
- Kd [12]: < 0.1 nM
- Kd [13]: 11.3 nM
- Kd [14]: < 0.1 nM
- Kd [15]: 234 nM
- Kd [16]: 13 nM
- Kd [17]: 1 nM
- Kd [6]: 13 nM
- Kd [18]: 1.5 nM
- Kd [19]: 10.6 nM
- Kd [20]: 0.38 nM
- Kd [21]: 15 nM
- Kd [8]: < 0.1 nM
- Kd [9]: < 0.1 nM
- Kd [10]: 1.06 nM
- Kd [22]: 13 nM
- Kd [23]: 23.8 nM
- Kd [11]: 0.97 nM
- fold greater affinity than C98 [24]: ~20 fold
- Kd [25]: 15.4 nM
- Kd [26]: 3.2 nM

B5: antibody D98 (antibody, V domains shown)
VH: B2 VH with V1Q, K2V, L3Q, E5V, G26A
VL: B1 VL
- Kd [27]: 16.9 nM

B6: antibody D118 (antibody, V domains shown)
VH: B2 VH with V1Q, K2V, L3Q, E5V, F27W
VL: B1 VL
- Kd [16]: 12.6 nM
- Kd [9]: < 0.1 nM
- Kd [10]: 9.07 nM
- Kd [22]: 12.6 nM
- Kd [25]: 24.4 nM

B7: antibody B11 (antibody, V domains shown)
VH: VKLLEQSGAELVKPGASVRLSCTAGFNIKDTYMSWVKQRPEQGLEWIGRIDPENGDTKYDPKFQGKATITADTSSNTAYLHLSSLTSGDTAVYYCSRGWEGFAYWGQGTLVTVSA
VL: ELVMTQTPASLAVSLGQRATISCRASENVDKYGNSFMHWYQQKAGQPPKLLIYRASELQWGIPARFSGSGSRTDFTLTINPVEADDVATYFCQRSNEVPWTFGGGTKLEIK
- Kd [2]: < 0.1 nM
- Kd [4]: 2.98 nM
- IC50, focus reduction neutralization test (FRNT), DV-4 [28]: 0.5 to 1.4 µg/mL

B8: antibody A11 (antibody, V domains shown)
VH: VKLLEQSGAELVKPGASVRLSCTASGFNIKDTYMSWVKQRPEQGLEWIGRIDPENGDTKYDPKFQGKATITADTSSNTAYLHLSSLTSGDTAVYYCSRGWEGFAYWGQGTLVTVSA
VL: B7 VL
notes: also called mAb A11; 4E5A
- Kd [12]: < 0.1 nM
- Kd [13]: 202 nM
- Kd [14]: < 0.1 nM
- Kd [15]: 5080 nM
- Kd [17]: 7.5 nM
- Kd [1]: < 0.1 nM
- Kd [2]: 0.269 nM
- Kd [4]: 18 nM
- Kd [18]: 14.1 nM
- Kd [19]: 86.2 nM
- Kd [20]: 0.39 nM
- Kd [21]: 136 nM
- Kd [9]: 0.35 nM and 0.269 nM
- Kd [10]: 16.8 nM and 18 nM
- Kd [26]: 32.1 nM

B9: mouse mAb 4E11 (antibody, V domains shown)
VH: B8 VH with E54A
VL: B7 VL with K31R, E57N, Q59E, W60S
notes: also called antibody 4E11
- Kd [14]: 5.2 nM
- Kd [18]: 21.8 nM
- Kd [19]: 40800 nM
- Kd [29]: 21.8 nM
- Kd [30]: 0.33 nM
